Tested on: peptide library, one residue held at a place counted from the S/T acceptor
Assay: relative phosphorylation of the sub-library (ratio to the mean residue at this position); Pediculus humanus corporis; higher = residue favoured
Outline: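 Each biotinylated degenerate peptide sub-library fixed one residue at one position around a central Ser/Thr and was incubated with a purified recombinant kinase, a human or orthologue construct, in 384-well plates. The 90 min reactions, under kinase-specific conditions, contained 50 μM peptide and 50 μM ATP spiked with γ-32P-ATP. Phosphorylation was read by phosphorimaging spots on streptavidin membranes and quantifying them by densitometry. Relative sub-library phosphorylation expresses each value as a ratio to the mean residue at that position.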

Sequence of PINK1, construct: aa126-end (E0W1I1 126-575, looked up): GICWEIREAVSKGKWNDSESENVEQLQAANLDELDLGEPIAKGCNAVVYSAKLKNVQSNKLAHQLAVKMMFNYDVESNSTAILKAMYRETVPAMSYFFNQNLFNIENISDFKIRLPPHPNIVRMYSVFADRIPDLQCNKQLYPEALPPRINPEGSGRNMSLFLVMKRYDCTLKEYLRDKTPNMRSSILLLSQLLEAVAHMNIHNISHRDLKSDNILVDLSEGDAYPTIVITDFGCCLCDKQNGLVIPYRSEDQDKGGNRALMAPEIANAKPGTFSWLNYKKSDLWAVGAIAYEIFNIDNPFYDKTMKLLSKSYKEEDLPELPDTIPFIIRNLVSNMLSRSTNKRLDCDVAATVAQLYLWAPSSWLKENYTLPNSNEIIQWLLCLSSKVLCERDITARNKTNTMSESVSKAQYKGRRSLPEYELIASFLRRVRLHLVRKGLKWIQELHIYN

“PINK1, construct: aa126-end (from UniProt E0W1I1)” gave a relative phosphorylation (A fixed, at +1) of 0.566, a relative phosphorylation (A fixed, at +2) of 1.09 and a relative phosphorylation (A fixed, at +3) of 0.757. It also gave a relative phosphorylation (A fixed, at +4) of 0.761, a relative phosphorylation (A fixed, at -1) of 1.01 and a relative phosphorylation (A fixed, at -2) of 0.871. The relative phosphorylation (A fixed, at -3) was 0.867, the relative phosphorylation (A fixed, at -4) was 0.921 and the relative phosphorylation (A fixed, at -5) was 1.04. The relative phosphorylation (D fixed, at +1) was 0.454, the relative phosphorylation (D fixed, at +2) was 0.704 and the relative phosphorylation (D fixed, at +3) was 0.585. It also gave a relative phosphorylation (D fixed, at +4) of 0.547, a relative phosphorylation (D fixed, at -1) of 0.982 and a relative phosphorylation (D fixed, at -2) of 0.416. For the same substance, the relative phosphorylation (D fixed, at -3) was 1.11, the relative phosphorylation (D fixed, at -4) was 1.49 and the relative phosphorylation (D fixed, at -5) was 1.67. For the same substance, the relative phosphorylation (E fixed, at +1) was 0.292, the relative phosphorylation (E fixed, at +2) was 0.655 and the relative phosphorylation (E fixed, at +3) was 0.509. The relative phosphorylation (E fixed, at +4) was 0.54, the relative phosphorylation (E fixed, at -1) was 1.22 and the relative phosphorylation (E fixed, at -2) was 0.781. It also gave a relative phosphorylation (E fixed, at -3) of 0.81, a relative phosphorylation (E fixed, at -4) of 1.81 and a relative phosphorylation (E fixed, at -5) of 1.48. It also gave a relative phosphorylation (F fixed, at +1) of 0.496, a relative phosphorylation (F fixed, at +2) of 1.06 and a relative phosphorylation (F fixed, at +3) of 1.11. It also gave a relative phosphorylation (F fixed, at +4) of 0.954, a relative phosphorylation (F fixed, at -1) of 0.612 and a relative phosphorylation (F fixed, at -2) of 1.25. For the same substance, the relative phosphorylation (F fixed, at -3) was 1.43, the relative phosphorylation (F fixed, at -4) was 1.01 and the relative phosphorylation (F fixed, at -5) was 1.21. The relative phosphorylation (G fixed, at +1) was 1.94, the relative phosphorylation (G fixed, at +2) was 0.875 and the relative phosphorylation (G fixed, at +3) was 0.873. It also gave a relative phosphorylation (G fixed, at +4) of 1.02, a relative phosphorylation (G fixed, at -1) of 0.812 and a relative phosphorylation (G fixed, at -2) of 0.416. The relative phosphorylation (G fixed, at -3) was 0.579, the relative phosphorylation (G fixed, at -4) was 0.946 and the relative phosphorylation (G fixed, at -5) was 0.806. It also gave a relative phosphorylation (H fixed, at +1) of 0.954, a relative phosphorylation (H fixed, at +2) of 1.11 and a relative phosphorylation (H fixed, at +3) of 1.15. For the same substance, the relative phosphorylation (H fixed, at +4) was 1.04, the relative phosphorylation (H fixed, at -1) was 0.945 and the relative phosphorylation (H fixed, at -2) was 0.84. The relative phosphorylation (H fixed, at -3) was 0.964, the relative phosphorylation (H fixed, at -4) was 1.25 and the relative phosphorylation (H fixed, at -5) was 1.09. For the same substance, the relative phosphorylation (I fixed, at +1) was 0.55, the relative phosphorylation (I fixed, at +2) was 0.712 and the relative phosphorylation (I fixed, at +3) was 0.657. The relative phosphorylation (I fixed, at +4) was 0.789, the relative phosphorylation (I fixed, at -1) was 0.604 and the relative phosphorylation (I fixed, at -2) was 1.55. For the same substance, the relative phosphorylation (I fixed, at -3) was 0.774, the relative phosphorylation (I fixed, at -4) was 0.696 and the relative phosphorylation (I fixed, at -5) was 0.863. For the same substance, the relative phosphorylation (K fixed, at +1) was 1.59, the relative phosphorylation (K fixed, at +2) was 1 and the relative phosphorylation (K fixed, at +3) was 1.41. It also gave a relative phosphorylation (K fixed, at +4) of 1.4, a relative phosphorylation (K fixed, at -1) of 0.952 and a relative phosphorylation (K fixed, at -2) of 0.828. The relative phosphorylation (K fixed, at -3) was 0.387, the relative phosphorylation (K fixed, at -4) was 0.596 and the relative phosphorylation (K fixed, at -5) was 0.754. For the same substance, the relative phosphorylation (L fixed, at +1) was 0.517, the relative phosphorylation (L fixed, at +2) was 0.76 and the relative phosphorylation (L fixed, at +3) was 0.676. For the same substance, the relative phosphorylation (L fixed, at +4) was 0.802, the relative phosphorylation (L fixed, at -1) was 1.14 and the relative phosphorylation (L fixed, at -2) was 0.907. The relative phosphorylation (L fixed, at -3) was 2.14, the relative phosphorylation (L fixed, at -4) was 0.739 and the relative phosphorylation (L fixed, at -5) was 0.889. For the same substance, the relative phosphorylation (M fixed, at +1) was 0.626, the relative phosphorylation (M fixed, at +2) was 0.982 and the relative phosphorylation (M fixed, at +3) was 0.832. The relative phosphorylation (M fixed, at +4) was 0.902, the relative phosphorylation (M fixed, at -1) was 1.23 and the relative phosphorylation (M fixed, at -2) was 2.75. It also gave a relative phosphorylation (M fixed, at -3) of 1.57, a relative phosphorylation (M fixed, at -4) of 0.804 and a relative phosphorylation (M fixed, at -5) of 0.923. For the same substance, the relative phosphorylation (N fixed, at +1) was 2.33, the relative phosphorylation (N fixed, at +2) was 1.02 and the relative phosphorylation (N fixed, at +3) was 1.17. The relative phosphorylation (N fixed, at +4) was 0.858, the relative phosphorylation (N fixed, at -1) was 1.52 and the relative phosphorylation (N fixed, at -2) was 0.589. For the same substance, the relative phosphorylation (N fixed, at -3) was 0.694, the relative phosphorylation (N fixed, at -4) was 1.18 and the relative phosphorylation (N fixed, at -5) was 0.888. For the same substance, the relative phosphorylation (P fixed, at +1) was 2.36, the relative phosphorylation (P fixed, at +2) was 1.41 and the relative phosphorylation (P fixed, at +3) was 1.06. The relative phosphorylation (P fixed, at +4) was 1.08, the relative phosphorylation (P fixed, at -1) was 0.419 and the relative phosphorylation (P fixed, at -2) was 0.316. It also gave a relative phosphorylation (P fixed, at -3) of 0.429, a relative phosphorylation (P fixed, at -4) of 0.63 and a relative phosphorylation (P fixed, at -5) of 0.878. For the same substance, the relative phosphorylation (Q fixed, at +1) was 0.786, the relative phosphorylation (Q fixed, at +2) was 1 and the relative phosphorylation (Q fixed, at +3) was 0.957. For the same substance, the relative phosphorylation (Q fixed, at +4) was 0.983, the relative phosphorylation (Q fixed, at -1) was 1.72 and the relative phosphorylation (Q fixed, at -2) was 1.06. The relative phosphorylation (Q fixed, at -3) was 0.609, the relative phosphorylation (Q fixed, at -4) was 0.831 and the relative phosphorylation (Q fixed, at -5) was 0.733. The relative phosphorylation (R fixed, at +1) was 2.05, the relative phosphorylation (R fixed, at +2) was 1.57 and the relative phosphorylation (R fixed, at +3) was 2.21. It also gave a relative phosphorylation (R fixed, at +4) of 2.15, a relative phosphorylation (R fixed, at -1) of 1.58 and a relative phosphorylation (R fixed, at -2) of 1.02. The relative phosphorylation (R fixed, at -3) was 0.815, the relative phosphorylation (R fixed, at -4) was 0.676 and the relative phosphorylation (R fixed, at -5) was 0.75. For the same substance, the relative phosphorylation (V fixed, at +1) was 0.474, the relative phosphorylation (V fixed, at +2) was 0.805 and the relative phosphorylation (V fixed, at +3) was 0.737. For the same substance, the relative phosphorylation (V fixed, at +4) was 0.692, the relative phosphorylation (V fixed, at -1) was 0.716 and the relative phosphorylation (V fixed, at -2) was 0.838. For the same substance, the relative phosphorylation (V fixed, at -3) was 0.441, the relative phosphorylation (V fixed, at -4) was 0.595 and the relative phosphorylation (V fixed, at -5) was 0.806. The relative phosphorylation (W fixed, at +1) was 0.455, the relative phosphorylation (W fixed, at +2) was 1.03 and the relative phosphorylation (W fixed, at +3) was 1.14. It also gave a relative phosphorylation (W fixed, at +4) of 1.47, a relative phosphorylation (W fixed, at -1) of 0.772 and a relative phosphorylation (W fixed, at -2) of 1.55. The relative phosphorylation (W fixed, at -3) was 1.74, the relative phosphorylation (W fixed, at -4) was 1.48 and the relative phosphorylation (W fixed, at -5) was 1.17. For the same substance, the relative phosphorylation (Y fixed, at +1) was 0.548, the relative phosphorylation (Y fixed, at +2) was 1.2 and the relative phosphorylation (Y fixed, at +3) was 1.17. The relative phosphorylation (Y fixed, at +4) was 1.01, the relative phosphorylation (Y fixed, at -1) was 0.775 and the relative phosphorylation (Y fixed, at -2) was 1.03. For the same substance, the relative phosphorylation (Y fixed, at -3) was 1.65, the relative phosphorylation (Y fixed, at -4) was 1.35 and the relative phosphorylation (Y fixed, at -5) was 1.04. It also gave a relative phosphorylation (pThr fixed, at +1) of 0.442, a relative phosphorylation (pThr fixed, at +2) of 0.775 and a relative phosphorylation (pThr fixed, at +3) of 0.7. It also gave a relative phosphorylation (pThr fixed, at +4) of 0.556, a relative phosphorylation (pThr fixed, at -1) of 0.306 and a relative phosphorylation (pThr fixed, at -2) of 0.5. It also gave a relative phosphorylation (pThr fixed, at -3) of 0.537, a relative phosphorylation (pThr fixed, at -4) of 1.01 and a relative phosphorylation (pThr fixed, at -5) of 1.67. It also gave a relative phosphorylation (pTyr fixed, at +1) of 0.458, a relative phosphorylation (pTyr fixed, at +2) of 1.66 and a relative phosphorylation (pTyr fixed, at +3) of 0.834. It also gave a relative phosphorylation (pTyr fixed, at +4) of 0.71, a relative phosphorylation (pTyr fixed, at -1) of 1.09 and a relative phosphorylation (pTyr fixed, at -2) of 1.06. It also gave a relative phosphorylation (pTyr fixed, at -3) of 3.15, a relative phosphorylation (pTyr fixed, at -4) of 1.66 and a relative phosphorylation (pTyr fixed, at -5) of 1.26.
